The target in the series is Cys109 (UniProt position 128, ADAGFCYPPET). As to the kind of experiment: NMR. As to conditions: 25 °C (general NMR condition 'unless stated otherwise'; not stated specifically for the pH series); reduced nDsbD (C103 and C109 as thiols), isolated domain, folded, cap loop closed.

Turning to “Thiol:disulfide interchange protein DsbD, N-terminal domain (nDsbD) (Escherichia coli)”, the pKa entry is on record as “above 11”.

Values taken from paper PMC7347389.
